Measured values as given in patent publication US20170173114A1, “METHODS AND COMPOSITIONS FOR INDUCTION OF UCP1 EXPRESSION” (Joslin Diabetes Center, Inc., priority 2014, published 2017).

Experiments:
[1] = test system: mature brown adipocytes; test: Oxygen consumption rate in mature brown adipocytes (Seahorse); type: cell-based; conditions: 24 hours; vs buffer
Method: To assess mitochondrial respiration, a Seahorse Extracellular Flux Analyzer (Seahorse Bioscience Inc., North Billerica, Mass.) was used to quantify oxygen consumption rates (OCR) of differentiated […] brown adipocytes. Wt-1 brown preadipocyte cells were seeded on 24-well format plates and allowed to adhere overnight. After adipogenic induction for 8 days, OCR was analyzed. To measure OCR […] oxidative phosphorylation, 0.5 μM oligomycin (EMD Chemicals Inc., Gibbstown, N.J.) was added to cells. Subsequently, 0.8 μM FCCP (carbonyl cyanide-p-trifluoromethoxyphenylhydrazone) and 1 μM respiratory chain inhibitors (rotenone) were added to measure maximal respiration and basal rates of nonmitochondrial respiration. As shown in FIGS. 23A and 23B, treatment of FGF6 enhanced oxygen consumption and glucose uptake in mature brown adipocytes. Thus, FGF6 was able to activate the mature brown adipocyte's ability to use glucose and increase energy expenditure without inducing UCP-1.

[2] = test system: mature brown adipocytes; test: Glucose uptake in mature brown adipocytes; type: cell-based; conditions: vs control
Method: The following glucose uptake assay was used to determine whether FGF6 could impact cellular glucose uptake. Specifically, glucose uptake was monitored in WT-1 brown preadipocytes and 3T3-F442A white preadipocytes in the presence or absence of FGF6. After serum starvation in DMEM/H medium containing 1% of BSA for 2-3 h, cells were washed with HEPES buffer and then incubated with or without 100 nM insulin for 30 min in DMEM/H medium containing 1% of BSA. Glucose transport was determined by the addition of 2-deoxy-[3H]glucose (0.1 mM, 0.5 μCi/mL; PerkinElmer Life and Analytical Science, Waltham, Mass.). […] Cells were then lysed in 0.1% SDS, and glucose uptake was assessed in 4 mL of scintillant using Beckman LS6500 scintillation counter (Beckman Coulter, Indianapolis Ind.). Nonspecific 2-deoxy-[3H]glucose uptake was measured in the presence of cytochalasin B (20 μM) and was subtracted from the total uptake to get specific glucose uptake. Results were expressed as the mean±s.e.m. of the indicated number of experiments. The protein content was determined by the Bradford method.
To assess mitochondrial respiration, a Seahorse Extracellular Flux Analyzer (Seahorse Bioscience Inc., North Billerica, Mass.) was used to quantify oxygen consumption rates (OCR) of differentiated human brown adipocytes. […] After adipogenic induction for 8 days, OCR was analyzed. […]

[3] = test system: WT-1 brown preadipocytes; test: Extracellular acidification rate (glycolysis) profile in FGF6 overexpressing WT-1 brown preadipocytes; type: cell-based, murine; conditions: FGF6 overexpressing WT-1 vs control cells
Method: To determine whether nutrient supply could regulate mitochondrial activity in FGF6-treated cells, concentrations of glucose in the assay media of cells were manipulated and measured in the Seahorse Bioanalyzer. FGF6 was stably expressed in WT-1 brown preadipocytes and 3T3-F442A white preadipocytes. Stable cells were generated by viral infection followed by drug selection.
A profile of the extracellular acidification rate (ECAR) was developed as described in FIG. 20A. 10 mM glucose was added to the assay media, which was then taken up by the cells and catabolized through glycolysis, producing ATP and protons, and resulting in a rapid increase in ECAR. […] Lastly, the glycolysis inhibitor 2-DG was added to measure […].

[4] = test system: WT-1 brown preadipocytes; test: Seahorse Bioanalyzer cellular respiration in WT-1 brown preadipocytes; type: cell-based, murine
From the text: The Seahorse XF24 (Seahorse Bioscience, http://www.seahorsebio.com/) was utilized for respirometry to measure oxygen consumption rates (OCR; indicating oxidative phosphorylation) and extracellular acidification rates (ECAR; indicating extracellular pH) in mature brown adipocytes. The cell plates and assay cartridges for the Seahorse XF24 have four ports allowing for drug delivery to individual wells during measurement of the metabolic parameters. For a typical bioenergetic profile, cells are first treated with oligomycin to block ATP synthase, FCCP as an uncoupler and Rotenone to block Complex 1 of the ETC (all from Sigma). Example 2 provides additional details regarding the general method. Data provided in the Figures (e.g., FIG. 27) based on the Seahorse Bioanalyzer includes a bottom horizontal line which represents the baseline of the mechanics of the machine and is not related to the experiment.
A profile of cellular respiration was developed by utilizing well-characterized mitochondrial toxins, as described in FIG. 5B. First, basal respiration was measured, followed by injection of oligomycin (an inhibitor of ATP synthase which allows measurement of ATP turnover). Then, the uncoupler FCCP (carbonilcyanide p-triflouromethoxyphenylhydrazone) was injected to measure respiratory capacity, followed by the complex 1 inhibitor rotenone (which prevents electron transfer activity and leaves only non-mitochondrial activity to be measured).
Similar results were observed when WT-1 brown preadipocytes were treated with 200 ng/mL of FGF6 for 24 hrs using the Seahorse Bioanalyzer.
The role of PGs in regulating mitochondrial function and cellular glucose uptake was also assessed. WT-1 brown preadipocytes were treated with PGE2, PGI2 and FGF6 in growth media (DMEM+10% FBS) for two days. Similar to treatment with FGF6, treatment with PGE2 and PGI2 enhanced oxygen consumption and glucose uptake, as described in FIGS. 27A and 27B, respectively.

[5] = test system: LDHA, PDK1, PKM2; test: LDHA, PDK1 and PKM2 mRNA expression in WT-1 cells; type: cell-based, murine; conditions: WT-1, 24 hours; vs vehicle
Method: To test the role of specific prostaglandins (PGs) in activating UCP1 expression, WT-1 brown adipocytes were pretreated with PGE2, PGI2 and FGF6 for 24 hours. mRNA expression levels of UCP1, PTGS2, LDHA, PDK1 and PKM2 were then measured.

B1: FGF6: fibroblast growth factor 6; recombinant human FGF from R&D Systems, or mouse FGF6 cDNA overexpressed by lentiviral vector (protein)
chain: KRQRRLYCNVGIGFHLQVLPDGRISGTHEENPYSLLEISTVERGVVSLFGVRSALFVAMNSKGRLYATPSFQEECKFRETLLPNNYNAYESDLYQGTYIALSKYGRVKRGSKVSPIMTVTHFLPRI
[1]
  oxygen consumption in mature brown adipocytes: enhanced
[2]
  glucose uptake in mature brown adipocytes: enhanced
[3]
  cellular glycolysis, glycolytic capacity and glycolytic reserve (ECAR): increase in cellular glycolysis, glycolytic capacity and glycolytic reserve
[4]; FGF6 overexpressing WT-1 vs control cells
  cellular respiration (basal respiration, ATP turnover, proton leak, respiratory capacity): increase in all tested aspects of cellular respiration
[4]; WT-1 treated with 200 ng/mL for 24 hrs
  uncoupled respiration: elevation in uncoupled respiration
[4]; WT-1 treated with 200 ng/mL for 24 hrs vs control cells
  cellular respiration (basal respiration, ATP turnover, proton leak, respiratory capacity): coordinated increase in all aspects of cellular respiration
[5]
  LDHA mRNA expression: increase
  PDK1 mRNA expression: increase
  PKM2 mRNA expression: increase
